One block for each substance: values may come before it.
How the values were obtained:
[1] = target: mouse CD20 (mouse) (UniProt P19437); experiment: flow cytometry on MC38/mCD20 cells
[2] = target: mouse PD1 (mouse) (UniProt Q02242); experiment: cell-based or functional assay
[3] = target: human CD22 (human) (UniProt P20273); experiment: cell-based or functional assay
[4] = target: human CD3 (human); experiment: cell-based or functional assay

human CD22 (human), sequence (P20273 20-847): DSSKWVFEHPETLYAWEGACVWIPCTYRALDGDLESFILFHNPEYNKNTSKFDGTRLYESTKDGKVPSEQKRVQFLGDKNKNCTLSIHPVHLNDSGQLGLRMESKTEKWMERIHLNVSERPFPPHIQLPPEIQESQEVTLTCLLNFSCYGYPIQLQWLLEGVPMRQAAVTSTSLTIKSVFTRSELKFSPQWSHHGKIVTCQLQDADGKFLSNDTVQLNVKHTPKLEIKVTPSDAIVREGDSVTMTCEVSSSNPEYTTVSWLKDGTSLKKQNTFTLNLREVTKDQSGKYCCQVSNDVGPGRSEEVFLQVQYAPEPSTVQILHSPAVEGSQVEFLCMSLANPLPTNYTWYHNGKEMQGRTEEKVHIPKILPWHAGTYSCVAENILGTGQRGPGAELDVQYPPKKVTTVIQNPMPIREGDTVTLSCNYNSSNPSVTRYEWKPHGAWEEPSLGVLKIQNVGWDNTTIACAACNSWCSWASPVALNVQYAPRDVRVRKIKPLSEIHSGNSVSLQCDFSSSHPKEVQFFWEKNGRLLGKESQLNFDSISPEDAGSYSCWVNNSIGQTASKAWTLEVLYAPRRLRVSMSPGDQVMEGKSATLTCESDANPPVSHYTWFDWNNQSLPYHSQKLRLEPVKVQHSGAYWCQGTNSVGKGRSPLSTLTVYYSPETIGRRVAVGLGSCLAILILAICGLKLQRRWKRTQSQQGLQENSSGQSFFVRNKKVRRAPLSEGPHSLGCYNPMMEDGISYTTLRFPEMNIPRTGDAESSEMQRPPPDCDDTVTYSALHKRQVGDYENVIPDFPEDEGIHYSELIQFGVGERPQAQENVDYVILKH
mouse CD20 (mouse), sequence (P19437 whole entry): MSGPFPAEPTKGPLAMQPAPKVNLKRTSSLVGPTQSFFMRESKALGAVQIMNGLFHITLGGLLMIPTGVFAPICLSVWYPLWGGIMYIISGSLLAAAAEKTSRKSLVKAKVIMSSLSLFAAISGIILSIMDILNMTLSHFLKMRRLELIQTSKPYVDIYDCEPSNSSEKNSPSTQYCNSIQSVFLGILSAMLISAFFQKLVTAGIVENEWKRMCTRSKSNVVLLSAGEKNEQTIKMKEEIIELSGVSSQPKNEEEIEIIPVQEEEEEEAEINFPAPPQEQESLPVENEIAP
mouse PD1 (mouse), sequence (Q02242 25-288): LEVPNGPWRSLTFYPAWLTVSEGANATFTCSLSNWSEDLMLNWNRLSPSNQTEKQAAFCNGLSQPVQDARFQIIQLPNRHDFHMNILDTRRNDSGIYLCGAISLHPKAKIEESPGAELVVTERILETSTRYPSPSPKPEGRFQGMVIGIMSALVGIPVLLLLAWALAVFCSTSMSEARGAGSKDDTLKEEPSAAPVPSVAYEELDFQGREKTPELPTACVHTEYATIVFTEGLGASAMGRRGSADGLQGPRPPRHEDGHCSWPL

- Max MFI [1]: 94.9 MFI
Substance: Single arm mPDL1 WT-Fc (Fc fusion)

- Max % inhibition, AP1-luciferase bioassay, 2.5 nM CD3 bsAb [2]: 3%
Substance: REGN1932 (hIgG1 control) (antibody)

- EC50, activation of T cell signaling (AP1-luciferase), run with 1 nM CD3 bsAb [3]: 1.15 nM
- EC50, activation of T cell signaling (AP1-luciferase), run with 2.5 nM CD3 bsAb [3]: 0.627 nM
- EC50, activation of T cell signaling (AP1-luciferase), run with 1 nM CD3 bsAb [4]: 1.15 nM
- EC50, activation of T cell signaling (AP1-luciferase), run with 2.5 nM CD3 bsAb [4]: 0.627 nM
Substance: CD3 bsAb (REGN10551) (bispecific antibody)

Reference: patent US20240425609A1
